Values joined by “and” are separate entries in the source; they are usually repeats but may differ in a detail not shown here. Equal values may be shown once. Marks after values point to notes of the source that are not given here.
Key:
[1] = tested on: patients with moderate to severe chronic plaque psoriasis; assay: PGA, CHAMPION 16-week Phase III trial; type: in vivo, human; details: ITT, missing PGA = not achieving
Method: Analytical methods included the following: • Intention-to-treat analyses were performed for all randomized patients • Missing data were analyzed using non-responder imputation (NRI) • PASI 75 at Week 16 (primary endpoint) was analyzed using adjusted Cochran-Mantel-Haenszel test.

[2] = tested on: patients with moderate to severe chronic plaque psoriasis; assay: PASI response and PGA, 120-week open-label extension study; type: in vivo, human; details: 40 mg eow, as observed
Text: Exclusion criteria included prior TNF-antagonist therapy.

[3] = tested on: C-reactive protein (CRP); assay: C-reactive protein concentrations, post-hoc analysis of REVEAL; type: in vivo, human; details: for mean change from baseline in CRP: 16 wks
Method: Changes in CRP concentrations were also evaluated in subgroups with or without self-reported psoriatic arthritis (PsA) and with or without obesity (by body mass index [BMI]).

[4] = tested on: patients with severe psoriasis who were non-responders to high-dosage etanercept; assay: ESR and CRP, open-label adalimumab in non-responders to high-dosage etanercept; type: in vivo, human; details: Week 12; individual patients 1-5 (c1-c5); weekly adalimumab
Text: This was an open-label prospective evaluation of adalimumab (HUMIRA®, Abbott Laboratories, Abbott Park, Ill., USA). Patients who were non-responders to etanercept were recruited from the Severe Psoriasis Clinic at St John's Institute of Dermatology in London. […] Inclusion criteria included male and female patients more than 18 years of age with plaque psoriasis (Table 98). The study was approved by St Thomas' Research Ethics Committee, and informed consent was obtained from all participants.

[5] = tested on: hepatitis B virus (HBV); details: cited from earlier work
[6] = tested on: patients with moderate to severe chronic plaque psoriasis; assay: Adverse events, CHAMPION 16-week Phase III trial; details: 16-week study
Text: The study was a multi-center, 16-week, randomized controlled Phase III trial. The main inclusion criteria included: • Clinical diagnosis of psoriasis for ≧1 year • Affected body surface area (BSA)≧10% • Psoriasis Area and Severity Index (PASI)≧10 The main exclusion criteria was previous use of MTX or systemic anti-TNF therapy.

[7] = tested on: patients with moderate to severe chronic plaque psoriasis; assay: Adverse events, 120-week open-label extension study; details: 40 mg eow; for Hypercholesterolemia / Increased triglycerides: non-fasting
Method: Inclusion criteria included: moderate to severe chronic plaque psoriasis: ≧1 year and affected BSA: ≧5%. Exclusion criteria included prior TNF-antagonist therapy.
PASI responses and PGA scores were analyzed as observed. […] Thus, patients whose dosages increased were counted as non-responders from the time of dosage escalation. Adverse events were collected throughout the 120-week period.

[8] = MTX N = 110, Adalimumab N = 107

## Adalimumab: a human anti-TNF mAb, described in U.S. Pat. No. 6,090,382 as D2E7 (HUMIRA, Abbott Laboratories)
[1]; Week 4
  PGA “Clear” or “Minimal” Responses, % Patients: 7*† %
[1]; Week 8
  PGA “Clear” or “Minimal” Responses, % Patients: 27‡§ %
[1]; Week 12
  PGA “Clear” or “Minimal” Responses, % Patients: 48‡§ %
[1]; Week 16
  PGA “Clear” or “Minimal” Responses, % Patients: 52‡§ %
[2]; Week 12
  PASI 50 response, % Patients: 78.7%
  PASI 75 response, % Patients: 56.2%
  PASI 90 response, % Patients: 29.2%
  PASI 100 response, % Patients: 11.2%
[2]; Week 24
  PASI 50 response, % Patients: 86.7%
  PASI 75 response, % Patients: 74.7%
  PASI 90 response, % Patients: 52%
  PASI 100 response, % Patients: 20%
[2]; Week 48
  PASI 50 response, % Patients: 96.7%
  PASI 75 response, % Patients: 81.7%
  PASI 90 response, % Patients: 61.7%
  PASI 100 response, % Patients: 31.7%
[2]; Week 72
  PASI 50 response, % Patients: 96.2%
  PASI 75 response, % Patients: 73.1%
  PASI 90 response, % Patients: 53.8%
  PASI 100 response, % Patients: 25%
[2]; Week 96
  PASI 50 response, % Patients: 92.5%
  PASI 75 response, % Patients: 75.5%
  PASI 90 response, % Patients: 52.8%
  PASI 100 response, % Patients: 24.5%
[2]; Week 120
  PASI 50 response, % Patients: 93.9%
  PASI 75 response, % Patients: 77.6%
  PASI 90 response, % Patients: 53.1%
  PASI 100 response, % Patients: 28.6%
[3]; Ps group (without self-reported PsA)
  mean change from baseline in CRP: −1.3
[3]; Ps group, Wk 16
  patients with elevated CRP at baseline who had a normal CRP: 64.6%
[3]; PsA group
  mean change from baseline in CRP: −6.3
[3]; PsA group, Week 16
  patients with elevated CRP at baseline who had a normal CRP: 71.9%
[3]; obese patients, Week 16
  patients changed from elevated CRP at baseline to a normal CRP: 64.1%
[4]
  CRP: 7 mg/L and < 5 mg/L (3×) and recorded/<5 mg/L
  ESR: 13 mm/hr and 12 mm/hr (2×) and 2 mm/hr
[5]
  reactivation of hepatitis B virus (HBV): associated with reactivation of hepatitis B virus (HBV)
[6]; [8]
  Any AE: 79 (74) n (%)
  Any AE leading to discontinuation: 1 (1) n (%)
  Any SAE: 2 (2) n (%)
[6]; common AE in ≧5% of patients
  Arthralgia: 6 (6) n (%)
  Gamma-Glutamyltransferase Increased: 2 (2) n (%)
  Headache: 14 (13) n (%)
  Nasopharyngitis: 30 (28) n (%)
  Nausea: 4 (4) n (%)
  Pruritus: 4 (4) n (%)
  Rhinitis: 3 (3) n (%)
  Rhinorrhea: 3 (3) n (%)
  Viral Infection: 0 (0) n (%)
[7]; 120-week period
  cases of tuberculosis, demyelinating disorder, lupus-like syndrome, lymphoma, or congestive heart failure: No cases
[7]; Week 0-24 (n = 92)
  AEs leading to withdrawal, patients: 4 (4.3) n (%)
  Any AE, patients: 69 (75.0) n (%)
  Diarrhea: 5 (5.4) n (%)
  Headache: 7 (7.6) n (%)
  Infectious AEs, patients: 28 (30.4) n (%)
  Malignant AEs, patients: 1 (1.1) n (%)
  Nasopharyngitis: 9 (9.8) n (%)
  Serious AEs, patients: 2 (2.2) n (%)
  Sinusitis: 1 (1.1) n (%)
  Hypercholesterolemia: 4 (4.3) n (%)
  Increased triglycerides: 7 (7.6) n (%)
[7]; Week 25-48 (n = 78)
  AEs leading to withdrawal, patients: 0 (0.0) n (%)
  Any AE, patients: 33 (42.3) n (%)
  Diarrhea: 1 (1.3) n (%)
  Headache: 0 (0.0) n (%)
  Malignant AEs, patients: 0 (0.0) n (%)
  Nasopharyngitis: 5 (6.4) n (%)
  Serious AEs, patients: 0 (0.0) n (%)
  Sinusitis: 1 (1.3) n (%)
  Hypercholesterolemia: 0 (0.0) n (%)
  Increased triglycerides: 1 (1.3) n (%)
[7]; Week 49-72 (n = 62)
  AEs leading to withdrawal, patients: 0 (0.0) n (%)
  Any AE, patients: 28 (45.2) n (%)
  Diarrhea: 1 (1.6) n (%)
  Headache: 0 (0.0) n (%)
  Malignant AEs, patients: 0 (0.0) n (%)
  Nasopharyngitis: 1 (1.6) n (%)
  Serious AEs, patients: 0 (0.0) n (%)
  Sinusitis: 1 (1.6) n (%)
  Hypercholesterolemia: 1 (1.6) n (%)
  Increased triglycerides: 1 (1.6) n (%)
[7]; Week 73-96 (n = 55)
  AEs leading to withdrawal, patients: 0 (0.0) n (%)
  Any AE, patients: 27 (49.1) n (%)
  Diarrhea: 0 (0.0) n (%)
  Headache: 0 (0.0) n (%)
  Malignant AEs, patients: 0 (0.0) n (%)
  Nasopharyngitis: 3 (5.5) n (%)
  Serious AEs, patients: 0 (0.0) n (%)
  Sinusitis: 3 (5.5) n (%)
  Hypercholesterolemia: 3 (5.5) n (%)
  Increased triglycerides: 1 (1.8) n (%)
[7]; Week 97-120 (n = 53)
  AEs leading to withdrawal, patients: 0 (0.0) n (%)
  Any AE, patients: 25 (47.2) n (%)
  Diarrhea: 3 (5.7) n (%)
  Headache: 0 (0.0) n (%)
  Malignant AEs, patients: 0 (0.0) n (%)
  Nasopharyngitis: 2 (3.8) n (%)
  Serious AEs, patients: 1 (1.9) n (%)
  Sinusitis: 1 (1-9) n (%)
  Hypercholesterolemia: 1 (1.9) n (%)
  Increased triglycerides: 0 (0.0) n (%)
